Measurements as given in paper PMC10781750, “Structural basis of antiphage immunity generated by a prokaryotic Argonaute-associated SPARSA system” (Nature Communications, 2024).

Target: T1, GsSir2 (Sir2-APAZ protein of the SPARSA system from Geobacter sulfurreducens) (Geobacter sulfurreducens, UniProt Q74DF6 1-586)
T1 construct: GsSir2 of Geobacter sulfurreducens, NP_952413.1; That the His tag sits on GsSir2, the first gene of Sir2-RBS-pAgo, is surmised; source: E. coli BL21(DE3), coexpressed with pAgo, purified (Ni-NTA, Superdex 200 SEC)
T1 sequence: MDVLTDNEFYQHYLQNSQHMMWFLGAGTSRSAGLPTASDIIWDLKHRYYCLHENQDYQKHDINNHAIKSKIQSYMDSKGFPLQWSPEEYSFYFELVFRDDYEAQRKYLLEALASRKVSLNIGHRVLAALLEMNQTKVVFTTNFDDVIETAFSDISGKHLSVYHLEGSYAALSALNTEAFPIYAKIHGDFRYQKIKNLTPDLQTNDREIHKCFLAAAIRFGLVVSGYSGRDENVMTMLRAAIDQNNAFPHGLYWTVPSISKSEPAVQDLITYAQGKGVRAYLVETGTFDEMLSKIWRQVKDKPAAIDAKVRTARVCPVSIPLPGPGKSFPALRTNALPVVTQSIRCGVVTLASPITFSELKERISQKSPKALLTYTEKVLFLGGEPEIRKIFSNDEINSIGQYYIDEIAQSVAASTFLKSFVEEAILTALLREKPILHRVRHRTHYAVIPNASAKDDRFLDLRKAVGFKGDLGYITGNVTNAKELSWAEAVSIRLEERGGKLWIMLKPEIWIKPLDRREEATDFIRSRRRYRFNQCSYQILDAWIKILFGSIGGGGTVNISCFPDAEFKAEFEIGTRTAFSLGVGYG
Assay: cryo-EM structure; SPARSA heterodimer (GsSir2 + pAgo) coexpressed and co-purified, endogenous NAD+ bound, no nucleic acids; 2 mg/mL; 3.6 Å
Details: both partners purified

B1: pAgo (short prokaryotic Argonaute of the SPARSA system from Geobacter sulfurreducens) (natural protein)
chain: not shown
notes: short pAgo of Geobacter sulfurreducens, NP_952414.1; MID domain residues 1-218, PIWI domain residues 219-473; no tag of its own is described; also called short pAgo; source: E. coli BL21(DE3), coexpressed with GsSir2, purified (Ni-NTA, Superdex 200 SEC)
  stoichiometry N: 1
